In patent US20170107258:

Assays:
[1] = tested on: T1, cyclic peptide P3, c(RlSKDK)
T1 sequence: RLSKDK

[2] = tested on: T2, cyclic peptide P1, c(RLsKDK), cyclo(Arg-Leu-{β-Ser}-Lys-Asp-Lys)
T2 sequence: RLSKDK

[3] = tested on: T3, cyclic peptide P2, c(rLSKDK)
T3 sequence: RLSKDK

purified recombinant ADAM8
ADAM8 proteolytic activity, fluorogenic CD23 peptide, peptides at 100 nM [1]: Cyclic peptides P2 and P3 showed inhibition of ADAM8 proteolytic activity | ADAM8 proteolytic activity, fluorogenic CD23 peptide, peptides at 100 nM [2]: cyclic peptide P1 showed the most marked inhibition | ADAM8 proteolytic activity, fluorogenic CD23 peptide, peptides at 100 nM [3]: Cyclic peptides P2 and P3 showed inhibition of ADAM8 proteolytic activity
